Changes are numbered by the printed parent chain.

These results are taken from patent publication US20130011412A1 (Genentech, published 2013).

The target in test [1] is T1, recombinant human lymphotoxin-α homotrimer (human LTα3) (human, UniProt P01374 35-205).
T1 construct: Coated on plates in the ELISAs; also called rhLTα; lymphotoxin-α3 trimer
T1 sequence (looked up): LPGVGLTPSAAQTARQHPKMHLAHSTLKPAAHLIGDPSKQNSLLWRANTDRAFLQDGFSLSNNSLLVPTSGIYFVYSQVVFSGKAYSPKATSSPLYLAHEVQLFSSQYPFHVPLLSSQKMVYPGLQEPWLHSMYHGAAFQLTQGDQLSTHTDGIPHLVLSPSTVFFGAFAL
Put plainly: BIACORE (rhLTα). A general note: In SPR one partner is held on a chip, and binding of the other changes the refractive index at the surface.

Test [2] has as its target T1, recombinant human lymphotoxin-α …. Put plainly: plate ELISA on coated human LTα. (In general: In an ELISA, binding on a coated surface is turned into a signal by an enzyme label.)
Test [3] shares this target. As to the kind of experiment: direct ELISA on plate-coated human LTα3 (1 µg/ml).
The target is the same in test [4]. Put plainly: blocking ELISA: biotinylated human LTα3 preincubated with the antibody, then captured on coated TNFRII.huIgG1 (m10).
Test [5] has the same target. As to the kind of experiment: plate ELISA on coated LTα.
Test [6] concerns the target T2, human LTα1β2 heterotrimer (R&D Systems) (human, UniProt P01374 35-205; Q06643 49-244, limits assumed).
T2 construct: also called LTαβ
T2 sequence (looked up) 1: T1 sequence (looked up)
T2 sequence (looked up) 2: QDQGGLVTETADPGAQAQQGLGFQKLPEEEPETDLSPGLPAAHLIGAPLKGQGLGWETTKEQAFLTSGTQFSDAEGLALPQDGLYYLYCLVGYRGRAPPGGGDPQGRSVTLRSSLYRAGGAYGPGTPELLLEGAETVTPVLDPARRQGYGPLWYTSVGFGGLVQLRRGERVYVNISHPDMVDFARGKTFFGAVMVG
As to the kind of experiment: ELISA on coated LTα1β2.

Test [7] addresses T1, recombinant human lymphotoxin-α …. As to the kind of experiment: cell-based or functional assay.
The target of test [8] is T3, human cell-surface LTαβ complex (LTα complexed with LTβ on the cell surface) (human, UniProt P01374 35-205; Q06643 1-244).
T3 construct: whole, on cells; also called human LTαβ
T3 sequence (looked up) 1: T1 sequence (looked up)
T3 sequence (looked up) 2: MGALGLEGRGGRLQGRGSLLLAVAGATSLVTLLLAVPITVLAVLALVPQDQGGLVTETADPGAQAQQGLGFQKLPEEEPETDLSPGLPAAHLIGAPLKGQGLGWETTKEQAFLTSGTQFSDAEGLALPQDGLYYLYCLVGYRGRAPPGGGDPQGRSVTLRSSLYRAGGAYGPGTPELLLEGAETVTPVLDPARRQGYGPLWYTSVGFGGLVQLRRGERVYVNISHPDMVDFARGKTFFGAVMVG
Put plainly: FACS titration on human Th2 cells, Alexa Fluor 647 conjugates. The procedure:
(§1) Cells were washed, aspirated, and re-suspended in PBS with 2% FBS. Cells were analyzed on a FACSCALIBUR™ (dual laser) using […]™ software, and results analyzed on a FLOWJO™ analyzer (Treestar).

Test [9] has as its target T4, murine cell-surface LTαβ complex on transfected SVT2 cells (murine, UniProt P09225 34-202; P41155 1-306).
T4 construct: whole, on cells; also called murine LTαβ
T4 sequence (looked up) 1: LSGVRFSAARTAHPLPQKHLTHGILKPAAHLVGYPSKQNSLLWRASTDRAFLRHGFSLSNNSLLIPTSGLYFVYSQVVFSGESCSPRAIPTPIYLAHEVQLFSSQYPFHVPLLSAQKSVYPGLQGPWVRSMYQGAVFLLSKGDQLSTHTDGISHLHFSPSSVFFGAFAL
T4 sequence (looked up) 2: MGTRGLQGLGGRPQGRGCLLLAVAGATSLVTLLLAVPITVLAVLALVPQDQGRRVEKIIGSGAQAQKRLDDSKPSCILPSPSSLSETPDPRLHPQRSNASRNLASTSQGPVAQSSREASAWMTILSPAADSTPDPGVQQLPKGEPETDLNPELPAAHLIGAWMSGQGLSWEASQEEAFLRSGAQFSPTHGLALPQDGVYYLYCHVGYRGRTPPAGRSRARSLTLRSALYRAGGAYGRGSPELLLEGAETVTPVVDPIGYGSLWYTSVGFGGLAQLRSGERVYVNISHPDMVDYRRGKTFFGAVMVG
Put plainly: FACS on SVT2 cells stably expressing murine LTαβ, reagents conjugated to ALEXA-647. The procedure: For murine LTαβ, SVT2 cells were transfected with full-length murine LTα and murine LTαβ (murine LTα sequence GenBank Ref NM_{—}010735; murine LTβ sequence GenBank Ref NM_{—}008518) to generate stable murine LTαβ-expressing cell lines. […] Cells were washed, aspirated, and resuspended in PBS with 2% FBS. Cells were analyzed on a FACSCALIBUR™ (dual laser) using […]™ software, and results analyzed on a FLOWJO™ analyzer (Treestar).

Test [10] concerns the target T3, human cell-surface LTαβ complex (LTα …). Put plainly: FACS titration on human Th1 cells, Alexa Fluor 647 conjugates. The procedure: as §1
Test [11] deals with T1, recombinant human lymphotoxin-α …. As to the kind of experiment: plate ELISA on coated LTα. This is another data set of the same source.
For test [12] the target is unchanged. Put plainly: plate ELISA, IgG.
The target is the same in test [13]. As to the kind of experiment: phage competitive ELISA, LTα (0-50 nM) in solution against plate-coated LTα. Here is the method:
(§2) For the first round, phage were captured for 2 hours against 2 μg/ml plate-coated LTα at ambient temperature. The second and third rounds of selection were performed at ambient temperature by capturing phage for 30 minutes with 2 nM biotinylated LTα in solution phase, followed by capture on neutravidin-coated plates. The highest affinity clone was identified using a competitive ELISA. Constant concentrations of phage clones (normalized by solid-phase LTα binding OD) were incubated with increasing concentrations of LTα (0-50 nM) in solution before capture on a plate coated with 2 μg/ml LTα.

The target is the same in test [14]. As to the kind of experiment: phage competitive ELISA: rhLTα in solution competes with plate-coated LTα. The procedure:
as §2

B1: chimeric anti-LTα antibody 2C8 (antibody, human IgG1, kappa, V domains shown)
VH: EVQLQQSGPELVKPGASVKLSCKASGYTFTSYVIHWVKQKPGQGLEWIGYNNPYNDGTNYNEKFKGKATLTSDKSSSTAYMELSSLTSEDSAVYYCSRPTMLPWFAYWGQGTTLTVSA
VL: DIVMTQSHKFMSTSVGDRVSITCKASQAVSSAVAWYQQKPGQSPKLQIYSASHRYTGVPDRFTGSGSGTDFTFTISSVQAEDLAVYYCQQHYSTPWTFGGGTKVEIKR
notes: Murine variable domains on human kappa and human IgG1; also called 2C8 chimera; 2C8.chimera
By Kd is commonly meant the concentration at which binding is half-saturated. By EC50 (read off the curve) is commonly meant the concentration that produces a half-maximal response. With B1, in test [1], the Kd was 0.6 nM. In test [2], the “ELISA IC50 ratio” value was 1 ratio. Further, the half-maximal effective concentration (EC50 (read off the curve)) in test [3] was around 0.1 nM. Also, the “IC50 (read off the curve)” value in [4] was around 5 nM.

B2: chimeric anti-LTα antibody 3F12 (original chimera) (antibody, human IgG1, kappa, V domains shown)
VH: QGQLQQSGAELMKPGASVKISCKATGYTFSSYWIEWVKQRPGHGLEWIGEISPGSGSTNYNEEFKGKATFTADKSSNTAYIQLSSLSTSEDSAVYYCADGYHGYWGQGTTLTVSS
VL: DIVMSQSPSSLAVSVGEKVTMSCKSSQSLLYSTNQKNFLAWYQQKPGQSPKLLIYWASTRDSGVPDRFTGSGSGTDFTLTISSVKAEDLAVYYCQQYYSYPRTFGGGTKLEIKR
notes: Murine variable domains on human C kappa and IgG1; also called 3F12 chimera; chimeric 3F12
Take B2: the Relative binding in test [5] was 1 relative to the original chimera. Also, the “EC50 (read off the curve)” value in test [3] was around 0.3 nM. In test [4], the “IC50 (read off the curve)” value was around 20 nM.

B3: human TNFRII.huIgG1 (ENBREL®) (Fc fusion, UniProt P20333 23-257, looked up)
chain: LPAQVAFTPYAPEPGSTCRLREYYDQTAQMCCSKCSPGQHAKVFCTKTSDTVCDSCEDSTYTQLWNWVPECLSCGSRCSSDQVETQACTREQNRICTCRPGWYCALSKQEGCRLCAPLRKCRPGFGVARPGTETSDVVCKPCAPGTFSNTTSSTDICRPHQICNVVAIPGNASMDAVCTSTSPTRSMAPGAVHLPQPVSTRSQHTQPTPEPSTAPSTSFLLPMGPSPPAEGSTGD
notes: extracellular domain; also called TNFRII.Fc; etanercept; not shown: Fc portion of a human IgG1
With B3, the binding result was “no binding” in test [6] and “no binding (tested: 100 ug/ml)” in test [8]. Further, the “IC50, blocking of human LT-induced cytotoxicity” value in test [7] came out at 0.83 nM.

B4: LTbR.muIgG2a (Fc fusion, mouse, UniProt P50284 31-223, looked up)
receptor-Fc fusion chain: QLVPPYRIENQTCWDQDKEYYEPMHDVCCSRCPPGEFVFAVCSRSQDTVCKTCPHNSYNEHWNHLSTCQLCRPCDIVLGFEEVAPCTSDRKAECRCQPGMSCVYLDNECVHCEEERLVLCQPGTEAEVTDEIMDTDVNCVPCKPGHFQNTSSPRARCQPHTRCEIQGLVEAAPGTSYSDTICKNPPEPGAMLL
notes: receptor portion of an Fc fusion; also called LTβ-receptor murine IgG2a; muLTβR.IgG2a
Consider B4, for which the binding result in test [9] is given as “binds”.

B5: LTbR.huIgG1 (Fc fusion, human, UniProt P36941 31-227, looked up)
receptor-Fc fusion chain: QAVPPYASENQTCRDQEKEYYEPQHRICCSRCPPGTYVSAKCSRIRDTVCATCAENSYNEHWNYLTICQLCRPCDPVMGLEEIAPCTSKRKTQCRCQPGMFCAAWALECTHCELLSDCPPGTEAELKDEVGKGNNHCVPCKAGHFQNTSSPSARCQPHTRCENQGLVEAAPGTAQSDTTCKNPLEPLPPEMSGTMLM
notes: receptor portion of an Fc fusion; also called LTβ-receptor.huIgG1; human LTβR.huIgG1
On to B5, for which the “EC50 (read off the curve)” value in test [10] was around 0.05 µg/mL.

B6: humanized 3F12.v5 (antibody, IgG1, V domains shown)
VH: EVQLVESGGGLVQPGGSLRLSCAASGYTFSSYWIEWVRQAPGKGLEWVGEISPGSGSTNYNEEFKGRATFSADNSKNTAYLQMNSLRAEDTAVYYCADGYHGYWGQGTLVTVSS
VL: DIQMTQSPSSLSASVGDRVTITCKSSQSLLYSTNQKNFLAWYQQKPGKAPKLLIYWASTRDSGVPSRFSGSGSGTDFTLTISSLQPEDFATYYCQQYYSYPRTFGQGTKVEIKR
notes: Human kappa / IgG1 constant domains (vectors of humanized 2G7 version 5); also called version 5
Take B6: in [11], the “fold weaker binding than the chimera” value was around 5 fold.

B7: humanized 2C8.v16 (antibody, human IgG1, V domains shown)
VH: EVQLVESGGGLVQPGGSLRLSCAASGYTFTSYVIHWVRQAPGKGLEWVGYNNPYNDGTNYNEKFKGRFTISSDKSKNTAYLQMNSLRAEDTAVYYCSRPTMLPWFAYWGQGTLVTVSS
VL: DIQMTQSPSSLSASVGDRVTITCRASQAVSSAVAWYQQKPGKAPKLLIYSASHRYTGVPSRFSGSGSGTDFTLTISSLQPEDFATYYCQESYSTPWTFGQGTKVEIKR
notes: Heavy chain: v12 variable domain on human IgG1; copies: 2 + 2
Consider B7, for which the “fold improvement in binding compared to 2C8.v2” value in test [12] is 2 fold. Moreover, the “ELISA IC50 ratio” value in test [2] is 0.6 ratio.

B8: phage-displayed 2C8 Fab clone A8 (Fab, V domains shown)
VH: B7 VH with F68A
VL: B7 VL with L47Q
notes: All phagemids kept the wild-type CDR-H3; also called 2C8 clone A8
By IC50 is commonly meant the concentration needed to halve the response being measured. For B8, the “fold improvement in competition over wild-type 2C8.v2” value in [13] worked out at 10 fold. Also, the IC50 in test [14] was found to be 0.32 nM.
